Results on two molecules are retold here after publication PMC8179113 (Cell, 2021).

The experiment addresses SARS-CoV-2 spike receptor binding domain (SARS-CoV-2, UniProt P0DTC2). Description: cryo-EM structure.

B1: REGN10989 Fab (Fab, V domains shown)
VH: QVQLVQSGAEVKKPGASVKVSCKASGYIFTGYYMHWVRQAPGQGLEWMGWINPNSGGANYAQKFQGRVTLTRDTSITTVYMELSRLRFDDTAVYYCARGSRYDWNQNNWFDPWGQGTLVTVSS
VL: QSALTQPASVSGSPGQSITISCTGTSSDVGTYNYVSWYQQHPGKAPKLMIFDVSNRPSGVSDRFSGSKSGNTASLTISGLQAEDEADYYCSSFTTSSTVVFGGGTKLTVL
With B1, the binding result is recorded as “binds”.

B2: REGN10985 Fab (Fab, V domains shown)
VH: EVQLVESGGGLVQPGRSLRLSCAASGFTFDDYAMHWVRQAPGKGLEWVSGISWNRGSIGYADSVKGRFTISRDNAKNSLYLQMSSLRAEDTALYYCAKDGERWDSVVVPSARNGMDVWGQGTTVTVSS
VL: QSVLTQPPSVSGAPGQRVTISCTGSSSNIGAGYDVHWYQQLPGTAPKLLIYGNSNRPSGVPDRFSGSKSGTSASLAITGLQAEDEADYYCQSYDSSLSGSYVFGTGTKVTVL
In the case of B2, the binding result is listed as “binds”.
